Experimental data published in patent publication US20060286636A1 (published 2006).

How the values were obtained:
[1] = molecular target: T1, mouse VEGFR-2/Fc chimeric receptor (mouse, UniProt P35918 20-762); assay: competition plate binding assay: cold competitor against 125I-VEGF165 on immobilized VEGFR-2 (KDR)/Fc, scintillation counting
T1 construct: Bought from R&D Systems; also called KDR; KDR receptor

[2] = molecular target: T2, mouse VEGFR-1/Fc chimeric receptor (mouse, UniProt P35969 23-759); assay: competition plate binding assay: cold competitor against 125I-VEGF165 on immobilized VEGFR-1 (Flt-1)/Fc, scintillation counting
T2 construct: Bought from R&D Systems; also called Flt-1; Flt-1 receptor

[3] = molecular target: T3, rat Neuropilin-1/Fc chimeric receptor (rat, UniProt Q9QWJ9 22-854); assay: competition plate binding assay, HBD against 125I-VEGF165 on immobilized rat neuropilin-1/Fc
[4] = molecular target: T3, rat Neuropilin-1/Fc chimeric receptor; assay: competition plate binding assay: cold competitor against 125I-VEGF165 on immobilized Np-1/Fc, scintillation counting
[5] = molecular target: T3, rat Neuropilin-1/Fc chimeric receptor; assay: competition plate binding assay, VEGF164 against 125I-VEGF165 on immobilized rat neuropilin-1/Fc, compared with HBD
[6] = molecular target: T3, rat Neuropilin-1/Fc chimeric receptor; assay: competition plate binding assay, cold competitor against 125I-VEGF165 on immobilized rat neuropilin-1/Fc, without heparin
[7] = molecular target: T2, mouse VEGFR-1/Fc chimeric receptor; assay: competitive binding of cold competitor against 125I-VEGF165 on immobilized mouse VEGFR-1/Fc, one-site competition fit [panel VEGFR-1]
[8] = molecular target: T1, mouse VEGFR-2/Fc chimeric receptor; assay: competitive binding of cold competitor against 125I-VEGF165 on immobilized mouse VEGFR-2/Fc, one-site competition fit [panel VEGFR-2]

T1 sequence (P35918 20-762, stated change not applied): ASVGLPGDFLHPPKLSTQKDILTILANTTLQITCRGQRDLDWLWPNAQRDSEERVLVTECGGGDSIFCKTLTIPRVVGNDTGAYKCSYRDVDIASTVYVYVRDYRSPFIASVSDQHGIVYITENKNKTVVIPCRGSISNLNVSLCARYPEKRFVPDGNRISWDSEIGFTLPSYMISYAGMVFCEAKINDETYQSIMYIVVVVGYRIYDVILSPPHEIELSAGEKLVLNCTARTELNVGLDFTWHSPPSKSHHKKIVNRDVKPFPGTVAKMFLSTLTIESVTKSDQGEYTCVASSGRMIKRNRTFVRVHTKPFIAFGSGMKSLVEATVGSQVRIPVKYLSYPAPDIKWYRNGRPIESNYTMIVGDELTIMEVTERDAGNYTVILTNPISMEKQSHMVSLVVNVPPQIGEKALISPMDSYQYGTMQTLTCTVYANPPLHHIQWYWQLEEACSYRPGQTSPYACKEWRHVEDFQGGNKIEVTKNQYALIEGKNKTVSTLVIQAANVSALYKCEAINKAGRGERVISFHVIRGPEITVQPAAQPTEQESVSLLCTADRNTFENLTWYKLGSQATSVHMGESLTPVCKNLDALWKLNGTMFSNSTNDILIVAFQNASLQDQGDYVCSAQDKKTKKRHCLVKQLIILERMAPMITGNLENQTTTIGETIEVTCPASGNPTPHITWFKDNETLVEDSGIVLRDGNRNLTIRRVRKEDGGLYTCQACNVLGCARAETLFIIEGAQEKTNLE
T3 sequence (Q9QWJ9 22-854, stated change not applied): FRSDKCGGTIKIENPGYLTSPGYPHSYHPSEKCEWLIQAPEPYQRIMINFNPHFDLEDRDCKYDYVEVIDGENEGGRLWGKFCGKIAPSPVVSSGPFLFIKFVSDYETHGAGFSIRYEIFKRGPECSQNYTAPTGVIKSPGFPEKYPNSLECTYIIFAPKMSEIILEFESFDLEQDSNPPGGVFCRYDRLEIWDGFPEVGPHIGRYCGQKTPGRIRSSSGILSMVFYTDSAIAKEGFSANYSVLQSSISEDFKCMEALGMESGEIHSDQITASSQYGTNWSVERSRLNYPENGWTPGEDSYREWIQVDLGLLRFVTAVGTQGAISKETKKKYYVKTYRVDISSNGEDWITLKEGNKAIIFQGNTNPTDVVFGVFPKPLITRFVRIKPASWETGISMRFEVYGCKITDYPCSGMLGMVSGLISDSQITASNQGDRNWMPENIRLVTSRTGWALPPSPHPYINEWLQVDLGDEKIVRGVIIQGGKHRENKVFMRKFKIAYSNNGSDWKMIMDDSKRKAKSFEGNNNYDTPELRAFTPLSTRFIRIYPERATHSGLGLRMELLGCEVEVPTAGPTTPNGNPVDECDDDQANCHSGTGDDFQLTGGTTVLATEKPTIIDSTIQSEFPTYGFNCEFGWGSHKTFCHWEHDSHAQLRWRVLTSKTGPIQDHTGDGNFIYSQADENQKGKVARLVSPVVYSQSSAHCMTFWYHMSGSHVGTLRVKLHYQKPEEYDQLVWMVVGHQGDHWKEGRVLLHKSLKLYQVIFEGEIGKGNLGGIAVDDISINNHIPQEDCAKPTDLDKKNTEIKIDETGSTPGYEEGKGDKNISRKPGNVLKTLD
T2 sequence (P35969 23-759, stated change not applied): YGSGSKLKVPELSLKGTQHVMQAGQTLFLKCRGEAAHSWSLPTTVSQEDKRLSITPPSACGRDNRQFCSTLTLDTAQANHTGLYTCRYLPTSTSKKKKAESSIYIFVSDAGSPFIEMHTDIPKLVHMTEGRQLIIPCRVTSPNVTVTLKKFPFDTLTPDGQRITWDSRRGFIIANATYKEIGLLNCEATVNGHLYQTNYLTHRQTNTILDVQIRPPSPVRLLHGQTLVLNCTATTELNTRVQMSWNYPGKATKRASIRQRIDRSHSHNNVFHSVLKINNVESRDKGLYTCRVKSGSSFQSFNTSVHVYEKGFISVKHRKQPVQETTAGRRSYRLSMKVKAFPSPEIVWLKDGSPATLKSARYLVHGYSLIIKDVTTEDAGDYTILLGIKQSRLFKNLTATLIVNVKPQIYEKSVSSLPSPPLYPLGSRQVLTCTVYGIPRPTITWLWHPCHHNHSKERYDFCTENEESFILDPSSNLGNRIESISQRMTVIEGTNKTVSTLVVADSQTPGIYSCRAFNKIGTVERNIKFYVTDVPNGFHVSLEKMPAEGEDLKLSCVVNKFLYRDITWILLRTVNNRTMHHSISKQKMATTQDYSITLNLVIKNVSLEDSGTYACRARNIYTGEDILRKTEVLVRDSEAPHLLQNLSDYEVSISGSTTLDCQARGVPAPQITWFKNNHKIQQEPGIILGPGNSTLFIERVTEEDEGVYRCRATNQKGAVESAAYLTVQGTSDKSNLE

Binder | IC50 (read off the curve) [1] [nM] | IC50 (read off the curve) [2] [nM] | IC50 (read off the curve) [4] [nM] | also measured
VEGF120 (ligand) APTTEGEQKSHEVIKFMDVYQRSYCRPIETLVDIFQEYPDEIEYIFKPSCVPLMRCAGCCNDEALECVPTSESNITMQIMRIKPHQSQHIGEMSFLQHSRCECRPKKDRTKPEKCDKPRR | ~0.08 | ~0.09 | – | –
recombinant heparin-binding domain of VEGF164 (HBD) (also called soluble HBD; VEGF55) ARQENPCGPCSERRKHLFVQDPQTCKCSCKNTDSRCKARQLELNERTCRCDKPRR | – | – | – | IC50 [3]: 28.6 nM
VEGF164 double mutant R14A/R49A (ligand, ID No. 23; also called R14/R49A; mutant R14/R49A) APMAEGGGQNHHEVVKFMDVYQRSYCHPIETLVDIFQEYPDEIEYIFKPSCVPLMRCGGCCNDEGLECVPTEESNITMQIMRIKPHQGQHIGEMSFLQHNKCECRPKKDRARQENPCGPCSERAKHLFVQDPQTCKCSCKNTDSRCKARQLELNERTCACDKPRR | – | – | ~5 | –
VEGF164 (wild type) (ligand) APTTEGEQKSHEVIKFMDVYQRSYCRPIETLVDIFQEYPDEIEYIFKPSCVPLMRCAGCCNDEALECVPTSESNITMQIMRIKPHQSQHIGEMSFLQHSRCECRPKKDRTKPENHCEPCSERRKHLFVQDPQTCKCSCKNTDSRCKARQLELNERTCRCDKPRR | ~0.08 | ~0.02 | – | fold stronger competitive binding than HBD [5]: ~230 fold; IC50 [6]: 0.128 nM; IC50 (read off the curve) [7]: ~0.04 nM; IC50 (read off the curve) [8]: ~0.2 nM
VEGF164 mutant K26A (ligand, mouse, UniProt Q00731-2 27-190, looked up, mature) APTTEGEQKSHEVIKFMDVYQRSYCRPIETLVDIFQEYPDEIEYIFKPSCVPLMRCAGCCNDEALECVPTSESNITMQIMRIKPHQSQHIGEMSFLQHSRCECRPKKDRTKPENHCEPCSERRKHLFVQDPQTCACSCKNTDSRCKARQLELNERTCRCDKPRR | – | – | ~0.4 | fold reduction of binding affinity compared to VEGF164 [6]: 2.5 fold
